{"source": "paper PMC3064781", "about": "(Nucleic Acids Research, 2010)", "target": "the molecule itself", "test": "crystal structure", "data": [{"protein": "Nep1 from Archaeoglobus fulgidus (enzyme) MGSAFVFLEASLELIPQKIRGHPAVRADAIRRGKRPEKILLDDSKHHTAMKSLEFREKRGRPDIVHQCLLLLLDSPLRDFEVYVHTLNGEIIWVNRETRLPRNYNRFVGLMEKLFEERRITAGDTTLIEFKDVGLRDIVRGRDVLLFREKGGRFEFSELLDGDVAVCIGAFPHGDFFEETLRELGEFKEVSLGTESYTSLYVTSRVLCEYERVRAHKVG", "values": [{"measurement": "binding result", "value": "binds"}]}]}
